# Results reported in publication PMC11903869, “Structure and function of the geldanamycin amide synthase from Streptomyces hygroscopicus” (Nature Communications, 2025).
# B1: GdmF (Streptomyces hygroscopicus) (protein)
# chain: MFDVAKYLRRIGVEGTPPPTLDTLRHLHKRHLMAVPYDNSTAPDRLPASRHLTNVPLDLVFGHVVTEGHGGVCYELNRLFHTLLAELGYDVRMVAAAVRQANGTFGPEREHTFDLVHLDGRTHLVDVGFPGPSYSEPLYLSEEEQHQYGCSYRVTEHDGYRVVERRPKGSDWQPVYRFRPELADPSGWDAVRLDSLDDYAQDSVLAGTTFRSRATDNGKIVLIGRRYFTVEDGVERTKVLVKADEFQDVVDLILAGA
# notes: full-length GdmF, N-terminal histidine hexamer
# Experiments:
# [1] = biological target: T1, GdmF (Streptomyces hygroscopicus, UniProt Q84G21); test: microscale thermophoresis; type: binding
# T1 construct: full-length GdmF, N-terminal histidine hexamer
# [2] = biological target: T1, GdmF; test: X-ray crystal structure (cleaved group from SNAC thioesters); type: binding
# [3] = biological target: T1, GdmF; test: X-ray crystal structure (cleaved group from pantetheine thioesters); type: binding
# [4] = substrate: CC(=O)SCCNC(=O)CCNC(=O)[C@H](O)C(C)(C)CO; test: purified protein, by the assay type; parameters: Steady-state amide formation, thiol release from thioesters monitored with DTNB at 405 nm, 22 °C; kcat: unit: s^-1; conditions: pH 7.5; 22.0 °C
# Protocol: (§1) The enzymatic activity of ShGdmF was measured by monitoring the release of free thiols with 5,5’-dithio-bis(2-nitrobenzoic acid) (DTNB) at 405 nm in 100 mM sodium phosphate buffer, pH 7.5. 2 µM ShGdmF was pre-incubated with 2 mM aminophenol 32 or 33 and 100 µM DTNB at 22 °C for 5 min in a 96-well plate before increasing concentrations of thioester 11a-c or 13a-c were added to each well. Measurements were performed using a Multiskan FC Microplate Photometer (Thermo Fisher Scientific) at 22 °C. Each measurement was performed in triplicate. […] The enzyme is able to catalyze the amide synthesis of SNAC and pantetheine thioesters directly in vitro and in the absence of the cellular environment (Fig. 6e + 6f). The kinetic parameters KM of GdmF for substrate conversion range from submillimolar to millimolar at maximum rates (kcat) of 0.001 to 0.02 s^−1. […] For the SNAC thioesters, an increase in kcat/KM with increasing chain length was observed, whereas in the case of the pantetheine thioesters, a decrease in catalytic efficiency with longer acyl substrates was observed. In terms of kcat values, the activity of GdmF is similar to that of the related MsNAT.
# [5] = substrate: C/C=C/C(=O)SCCNC(C)=O; test: purified protein, by the assay type; parameters: Steady-state amide formation, thiol release from thioesters monitored with DTNB at 405 nm, 22 °C; kcat: unit: s^-1; conditions: pH 7.5; 22.0 °C
# Protocol: as §1
# [6] = substrate: CC/C=C/C(=O)SCCNC(=O)CCNC(=O)[C@H](O)C(C)(C)CO; test: purified protein, by the assay type; parameters: Steady-state amide formation, thiol release from thioesters monitored with DTNB at 405 nm, 22 °C; kcat: unit: s^-1; conditions: pH 7.5; 22.0 °C
# Protocol: as §1
# [7] = substrate: C/C=C(\C)C(=O)SCCNC(C)=O; test: purified protein, by the assay type; parameters: Steady-state amide formation, thiol release from thioesters monitored with DTNB at 405 nm, 22 °C; kcat: unit: s^-1; conditions: pH 7.5; 22.0 °C
# Protocol: as §1
# [8] = substrate: CC(=O)SCCNC(=O)CCNC(=O)[C@H](O)C(C)(C)CO; test: purified protein, by the assay type; parameters: Steady-state amide formation, thiol release from thioesters monitored with DTNB at 405 nm, 22 °C; kcat: unit: s^-1; conditions: pH 7.5; 22.0 °C; remark: listed apart in the source
# Protocol: as §1
# [9] = substrate: C/C=C/C(=O)SCCNC(C)=O; test: purified protein, by the assay type; parameters: Steady-state amide formation, thiol release from thioesters monitored with DTNB at 405 nm, 22 °C; kcat: unit: s^-1; conditions: pH 7.5; 22.0 °C; remark: listed apart in the source
# Protocol: as §1
# [10] = substrate: CC/C=C/C(=O)SCCNC(=O)CCNC(=O)[C@H](O)C(C)(C)CO; test: purified protein, by the assay type; parameters: Steady-state amide formation, thiol release from thioesters monitored with DTNB at 405 nm, 22 °C; kcat: unit: s^-1; conditions: pH 7.5; 22.0 °C; remark: listed apart in the source
# Protocol: as §1
# [11] = substrate: C/C=C(\C)C(=O)SCCNC(C)=O; test: purified protein, by the assay type; parameters: Steady-state amide formation, thiol release from thioesters monitored with DTNB at 405 nm, 22 °C; kcat: unit: s^-1; conditions: pH 7.5; 22.0 °C; remark: listed apart in the source
# Protocol: as §1
molecule,measurement,setting,value
"C/C=C(\C)C(=O)SCCNC(C)=O [11b, SNAC ester 11b]",Kd,[1],1160 µM
"CC(=O)SCCNC(=O)CCNC(=O)[C@H](O)C(C)(C)COP(=O)(O)OP(=O)(O)OC[C@H]1O[C@@H](n2cnc3c(N)ncnc32)[C@H](O)[C@@H]1OP(=O)(O)O [compound 5, acetyl-CoA]",Kd,[1],2960 µM
CC(=O)NCCS [N-acetylcysteamine],X-ray crystal structure (cleaved group from SNAC thioesters),[2],"we found densities for the cleaved SNAC or pantetheine groups, instead"
CC(C)(CO)[C@@H](O)C(=O)NCCC(=O)NCCS [pantetheine],X-ray crystal structure (cleaved group from pantetheine thioesters),[3],"Crystal structure of GdmF with bound pantetheine, and (b) N-acetylcysteamine (SNAC) in the active site cleft"
B1,Km,[4],3.6483 ± 2.8127 mM
same,kcat,[4],0.0075 ± 0.0051 s⁻¹
same,kcat/Km,[4],2.06 M⁻¹ s⁻¹
same,Km,[5],1.8651 ± 0.2537 mM
same,kcat,[5],0.0032 ± 0.00026 s⁻¹
same,kcat/Km,[5],1.72 M⁻¹ s⁻¹
same,Km,[6],8.2677 ± 1.6107 mM
same,kcat,[6],0.0084 ± 0.0013 s⁻¹
same,kcat/Km,[6],1.02 M⁻¹ s⁻¹
same,Km,[7],6.9024 ± 4.1426 mM
same,kcat,[7],0.012 ± 0.0058 s⁻¹
same,kcat/Km,[7],1.74 M⁻¹ s⁻¹
same,Km,[8],6.4136 ± 2.0704 mM
same,kcat,[8],0.0164 ± 0.0039 s⁻¹
same,kcat/Km,[8],2.56 M⁻¹ s⁻¹
same,Km,[9],0.8581 ± 0.2327 mM
same,kcat,[9],0.0016 ± 0.00019 s⁻¹
same,kcat/Km,[9],1.87 M⁻¹ s⁻¹
same,Km,[10],1.1368 ± 0.1369 mM
same,kcat,[10],0.0027 ± 0.00013 s⁻¹
same,kcat/Km,[10],2.37 M⁻¹ s⁻¹
same,Km,[11],2.735 ± 0.6103 mM
same,kcat,[11],0.0071 ± 0.0007 s⁻¹
same,kcat/Km,[11],2.6 M⁻¹ s⁻¹
